Experimental data: US20090221530A1, “Relaxase Modulators and Methods of Using Same” (priority 2005, published 2009)

Legend:
Experiment in all cases: cleavage_in_vitro
[1] = test system: TraI D81N D81N (Escherichia coli F plasmid); settings: crossover 10%; in vivo transfer 0.0030%; printed DB1N in table; 6 mM MgCl2, 37 C
[2] = test system: TraI H159E H159E (Escherichia coli F plasmid); settings: crossover eliminated per text (nd in table); in vivo transfer 0.0010%; 6 mM MgCl2, 37 C
[3] = test system: TraI H159Q H159Q (Escherichia coli F plasmid); settings: crossover 95%; text calls this no change; 6 mM MgCl2, 37 C
[4] = test system: TraI K265M K265M (Escherichia coli F plasmid); settings: in vivo transfer 59%; 6 mM MgCl2, 37 C
[5] = test system: TraI wild-type (full length or N300) (Escherichia coli F plasmid); settings: crossover 100%; 6 mM MgCl2, 150 mM NaCl, pH 7.5, 37 C

oriT 22-mer
activity (% of WT cleavage) [1]: 53
activity (% of WT cleavage) [2]: 8.5
activity (% of WT cleavage) [3]: 55
activity (% of WT cleavage) [4]: 100
activity [5]: 100 % cleavage
